# What was measured:
# [1] = system: peripheral blood NK cells; experiment: Phase 1 study in healthy subjects (AB79-101): NK cell levels; format: in vivo, human; settings: all subjects receiving a single 0.06 mg/kg IV dose
# Description: (§1) In a phase 1 study in healthy subjects (Study AB79-101), AB79 reduced the levels of peripheral blood and natural killer (NK) cells >90% from baseline in all subjects receiving a single 0.06 mg/kg IV dose of AB79, with a maximum observed concentration (Cmax) of 0.1 μg/mL. (U.S. Pat. No. 8,362,211; U.S. International Patent Application Serial Nos. PCT/US2019/013547 and PCT/US2019/024431). […] Potent reduction of plasmablasts was observed across cohorts of patients in the RRMM trial (Study AB79-1501). […] Consequently, AB79 may be more efficient at eliminating cells expressing high levels of CD38, which could manifest as higher activity on tumor cells (e.g., improved and deeper response rates across a population of patients with myeloma).
# (§2) AB79 IV reduced the levels of peripheral blood NK cells >90% from baseline levels in all subjects receiving a single 0.06 mg/kg IV dose, with a Cmax of 0.1 μg/mL. […] As a potent and convenient second-generation anti-CD38 mAb, AB79 SC warranted therapeutic development for the treatment of multiple myeloma (MM).
# [2] = system: plasmablasts in peripheral blood; experiment: Phase 1 study in healthy subjects (AB79-101): plasmablast levels; format: in vivo, human; settings: SC
# Description: as §1, §2
# [3] = Phase 1 study in healthy subjects (AB79-101): pharmacokinetics; format: in vivo, human; settings: single 0.06 mg/kg IV dose
# Description: as §1, §2
# [4] = Phase 1 study in healthy subjects (AB79-101): safety; format: in vivo, human
# Description: as §1, §2
# [5] = AB79-1501 study, AB79 plus PomDex combination cohort in RRMM: safety; format: in vivo
# Description: This is a multicenter, dose-escalation, open-label, single-arm, Phase 1/2a study designed to determine the safety, tolerability, efficacy, PK, and immunogenicity of AB79 monotherapy in patients with RRMM, and to provide a preliminary assessment of its activity against MM.
# The phase 1 portion of the study evaluates administration of single agent AB79 for dose-limiting toxicity (DLT) to determine the MTD or the RP2D for further assessment in phase 2a. A recommended dose below the MTD is identified based on the review of safety, PK, PD (e.g., CD38 occupancy), and clinical data from the phase 1 portion of the study. The safety and tolerability of AB79 is assessed by recording and analyzing TEAEs, dose modifications, treatment discontinuations, vital signs, physical examinations, serum chemistry and hematology, urinalysis, ECGs, and concomitant medications. In phase 1, approximately 6 doses of AB79 are evaluated in ascending cohorts of 3 to 6 patients per cohort. Cohorts may be expanded by enrolling additional patients to further inform selection of the RP2D before enrolling in the Phase 2a portion of the study. In the phase 2a portion of this study, Grade 4 or higher nonhematologic toxicity is monitored starting from the first 10 enrolled patients and then every 10 patients thereafter. Additionally, a cohort of patients receive AB79 combined with the backbone regimen of pomalidomide and dexamethasone (PomDex) in patients with RRMM who have received at least 2 prior therapies and are refractory to the last therapy before study entry.
# The study provides a Confirmation Cohort and a Combination Cohort. Each Cohort is administered a dose of 300 mg AB79 subcutaneously weekly for 8 weeks during Cycles 1 and 2 (8 doses), every other week during Cycles 3 to 6 for 16 weeks (8 doses), and then once every 4 weeks until PD in subsequent cycles. Safety and available efficacy, PK, and pharmacodynamics are reviewed at least after 6 patients in each subgroup have received 1 cycle of therapy, then on an ongoing basis. […] The Combination Cohort also receives pomalidomide and dexamethasone (PomDex), and given according to product labeling (Pomalyst USPI). […] In the Combination Cohort, up to 6 patients are initially enrolled and safety in Cycle 1 reviewed. […] If 2 of 6 patients develop DLTs, an additional cohort of 6 patients is tested at a de-escalated dose; an intermediate or more conservative dose schedule may also be implemented as a means to provide an overall lower dose. A lower dose of pomalidomide is also considered based on available safety data. […] If 2 of 6 patients develop DLTs at the lower dose, this cohort is stopped for further evaluation.
# [6] = AB79 plus PomDex, RRMM, 5 patients treated
substance,measurement,setting,value
"AB79: anti-CD38 monoclonal IgG1 antibody; heavy chain SEQ ID NO:11, light chain SEQ ID NO:12",reduction of levels of peripheral blood NK cells from baseline,[1],> 90%
same,reduction of levels of circulating plasmablasts in peripheral blood,[2],dose-dependent manner
same,maximum observed concentration (Cmax),[3],0.1 µg/mL
same,serious adverse events (SAEs),"[4]; 74 healthy subjects, single IV or SC dose escalation",no serious adverse events
same,"neutrophil, lymphocyte, monocyte, RBC and platelet counts","[4]; healthy subjects, all dose cohorts",remained within normal ranges
same,number of DLTs (neutropenia),[5]; AB79 plus PomDex cohort,1 DLT
same,"drug-related SAEs or AEs leading to study drug discontinuation, or on-study deaths",[5]; AB79 plus PomDex combination,No
same,systemic reactions,[5]; AB79 plus PomDex combination,no systemic reactions
same,TEAE regardless of causality: cough,[5]; [6],2 patients
same,TEAE regardless of causality: neutropenia,[5]; [6],2 patients

# From US20220241413A1, “COMBINATION THERAPIES USING CD-38 ANTIBODIES” (Takeda Pharmaceutical Company Limited, priority 2019, published 2022)
